Assay results as given in paper PMC12599243, “Mechanistic insights into DNA binding by BD1 of the TAF1 tandem bromodomain module”.
One block for each molecule: values may come before it.

How the values were obtained:
[1] = target: T1, TAF1 tandem bromodomain (BD1-BD2) (human, UniProt P21675 1402-1656); assay: EMSA; details: EMSA: 50 mM HEPES pH 7.5, 100 mM NaCl, 35 nM DNA, 1 h at 4 C, 6% native PAGE, 0.5x TBE, 100 V on ice. HeLa mononucleosome pulldown (undefined DNA) not listed.
T1 sequence: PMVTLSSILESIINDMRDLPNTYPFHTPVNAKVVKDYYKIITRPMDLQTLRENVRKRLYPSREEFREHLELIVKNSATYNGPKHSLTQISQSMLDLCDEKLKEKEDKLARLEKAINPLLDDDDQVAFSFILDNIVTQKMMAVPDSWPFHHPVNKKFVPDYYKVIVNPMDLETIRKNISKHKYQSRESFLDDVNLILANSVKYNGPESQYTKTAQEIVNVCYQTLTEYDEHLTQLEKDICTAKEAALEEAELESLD

[2] = target: Histone H4 H4K8acK16ac peptide (Homo sapiens) (UniProt P62805); details: cited from earlier work
[3] = target: Histone H4 H4K5acK12ac peptide (Homo sapiens) (UniProt P62805); details: cited from earlier work
[4] = target: TAF1 tandem bromodomain BD1 triple mutant (R1435S/K1436S/R1437S), 6xHis-tagged (human); assay: pull-down; 20 μg hyperacetylated HeLa mononucleosomes (cells treated with trichostatin A) mixed with 50 μM 6xHis-tagged TAF1 tandem bromodomain or its mutant, 4°C, 60 min; captured on Ni-NTA agarose; washed with 50 mM HEPES pH 7.5, 500 mM KCl, 2 mM EDTA, 0.1% Tween-20; eluted with 500 mM imidazole; western blot with anti-H4K5ac and anti-H4K8ac
[5] = target: T1, TAF1 tandem bromodomain (BD1-BD2); assay: EMSA; no peptide; EMSA: 50 mM HEPES pH 7.5, 100 mM NaCl, 35 nM DNA, 1 h at 4 C; 6% native PAGE, 0.5x TBE, 100 V on ice. HeLa mononucleosome pulldown (undefined DNA) not listed.; details: protein: recombinant; tags: C-terminal 6xHis; label: none (SYBR Gold stain); blunt

Molecule: 147 bp Widom 601 DNA
Kd ([1]; 320 uM H4(1-15)K5acK12ac peptide): 19.7 µM
Kd ([1]; no peptide): 16.8 µM

Molecule: TAF1 tandem bromodomain (from UniProt P21675)
Kd [2]: 5.3 µM
Kd [3]: 1.4 µM

fold decrease in binding against wildtype [4]: 1.5 fold
Molecule: acetylated mononucleosomes isolated from HeLa cells (from UniProt P62805 1-103) (complex)

B1: 147 bp GC-rich 601 DNA (AT-tracts mutated to GC) (dsDNA)
DNA 1: CTGGAGAATCCCGGTGCCGAGGCCGCTCGACTGGTCGTAGACAGCTCTAGCACCGCTCAGACGCACGTACGCGCTGTCCCCCGCGTTTCAGCCGCCAAGGGGACTGCTCCCTAGTCTCCAGGCACGTGTCAGATGCGTACATCCTGT
DNA 2: ACAGGATGTACGCATCTGACACGTGCCTGGAGACTAGGGAGCAGTCCCCTTGGCGGCTGAAACGCGGGGGACAGCGCGTACGTGCGTCTGAGCGGTGCTAGAGCTGTCTACGACCAGTCGAGCGGCCTCGGCACCGGGATTCTCCAG
Kd [5]: 34.2 ± 5.4 µM
